# Assay results from patent publication US20150104385A1, “RADIO-PHARMACEUTICAL COMPLEXES” (Algeta ASA, priority 2012, published 2015).
# Target: T1, CD22 (Homo sapiens, UniProt P20273)
# T1 construct: host or cells: Raji cells
# Assay: Binding of AGC1115 and AGC1100 to CD22-positive Raji cells by flow cytometry
# Conditions: flow cytometry MFI, 1.5 h at 4° C., four-parameter fit, read-out: EC50 of fitted titration curve (binding potency)
# Method: Binding of AGC1115 and AGC1100 (anti-human CD22, Immunomedics; hLL2, #1003164, 10 mg/ml) to CD22-positive Raji cells (ATCC, #CCL-86) was analysed by flow cytometry. The EC50 value determined from the fitted curve was used for comparison of the antibody versus the antibody conjugate binding potency. This analysis was used to confirm that antibody conjugate binding potency to CD22 was unaffected by the conjugation procedure.
# Raji cells were grown in RPMI 1640 (PAA; #E15-840) in the presence of 10% fetal bovine serum (FBS) and 1% penicillin/streptomycin. For the flow cytometry analysis 50 ml cell culture was harvested by centrifugation at 4° C. for 5 min at 340×g. […] Subsequently, 20 μl of the preparation of resuspended cells was diluted 1:500 in Coulter Isoton II Diluent, and counted using Beckman Coulter Z2 instrumentation (Beckman Coulter; CA, USA). […]
# AGC1115 and AGC1100 was diluted to 50 μg/ml and titrated in twelve points in 3-fold dilution steps. […] All samples were analysed in a V-shaped bottom 96-well plate. Fluorescent signal was recorded on a Beckman Coulter Cell Lab Quanta SC MPL flow cytometer (Beckman Coulter; CA, USA). […]
# Data was fitted using the “log(agonist) vs. response—Variable slope (four parameters)” binding model in Graph Pad Prism (PrismSoftware; CA, USA) and the EC50 values was calculated from the fit (FIG. 2).
substance,measurement,value
"AGC1100: anti-CD22 monoclonal antibody hLL2, also called epratuzumab",EC50,9 nM
